The source of these data is US8835136B2, “Engineered amine dehydrogenases and methods of use thereof” (Georgia Tech Research Corporation, priority 2012, dated 2014).

Assay type in all cases: biochemical
Data set [1] can be described thus: Reductive amination activity.
The nature of data set [2]: Oxidative deamination, spectrophotometric assay at 340 nm. As to conditions: deamination. The method, then:
Activity of purified proteins was measured using a spectrophotometric assay at 340 nm, corresponding to the cofactor nicotinamide adenine dinucleotide (NADH, ε340=6220 M^−1 cm^−1) (Dawson, et al., Clarendon Press, (1989). For reductive amination, reactions took place in 500 mM NH4Cl/NH4OH at pH 9.6, with 200 μM NADH and 20 mM of the ketone substrate, unless otherwise specified. […] All reactions were performed at 25° C. unless otherwise specified. Enzyme was added in 10 μL aliquots in dilute concentrations. Enzyme concentrations varied upon activity levels with the substrate present, but were dilute enough to ensure linear conversion kinetics over the analytical time period (10 min to 30 min). Specific activities were then calculated from the stoichiometric conversion of cofactor as determine by the change in absorbance at 340 nm over time.

Data set [3] is described as follows: Kinetic parameter for NADH (PheDH-AmDH). The method, then: Kinetic parameters, kcat and KM, were determined for the enzyme and each of the reductive amination substrates; respectively. […] The kcat value for this AmDH enzyme with all three substrates saturated in aqueous NH4Cl/NH4OH buffer at pH 9.6 was 6.85 s^−1 at 25° C. This represents a near 15-fold enhancement above the maximum observed kcat of 0.46 s^−1 of the previously developed LeuDH-AmDH.

The nature of data set [4]: Reductive amination, spectrophotometric assay at 340 nm. As to conditions: 500 mM NH4Cl/NH4OH pH 9.6, 200 μM NADH, 20 mM, 25° C. The protocol: Activity of purified proteins was measured using a spectrophotometric assay at 340 nm, corresponding to the cofactor nicotinamide adenine dinucleotide (NADH, ε340=6220 M^−1 cm^−1) (Dawson, et al., Clarendon Press, (1989). For reductive amination, reactions took place in 500 mM NH4Cl/NH4OH at pH 9.6, with 200 μM NADH and 20 mM of the ketone substrate, unless otherwise specified. For oxidative deamination, reactions took place in 0.1 M NaHCO3/Na2CO3 buffer at pH 10.0, with 1 mM NAD+ with 10 mM of the amine substrate of interest. All reactions were performed at 25° C. unless otherwise specified. Enzyme was added in 10 μL aliquots in dilute concentrations. Enzyme concentrations varied upon activity levels with the substrate present, but were dilute enough to ensure linear conversion kinetics over the analytical time period (10 min to 30 min). Specific activities were then calculated from the stoichiometric conversion of cofactor as determine by the change in absorbance at 340 nm over time.
The activity of the purified protein was evaluated using a spectrophotometric assay at 340 nm as described in Section 3.2.3 at 25° C. in various concentrations of NH4Cl/NH4OH buffer pH 9.6.

Values joined by “and” are separate entries in the source; they are usually repeats but may differ in a detail not shown here. Equal entries are not always repeated.

B1: K77S N276L: PheDH-AmDH double variant, SEQ ID NO:2; PheDH library 1 hit 1H4 (protein)
chain: SLVEKTSIIKDFTLFEKMSEHEQVVFCNDPATGLRAIIAIHDTTLGPALGGCRMQPYNSVEEALEDALRLSKGMTYSCAASDVDFGGGKAVIIGDPQKDKSPELFRAFGQFVDSLGGRFYTGTDMGTNMEDFIHAMKETNCIVGVPEAYGGGGDSSIPTAMGVLYGIKATNKMLFGKDDLGGVTYAIQGLGKVGYKVAEGLLEEGAHLFVTDINEQTLEAIQEKAKTTSGSVTVVASDEIYSQEADVFVPCAFGGVVNDETMKQFKVKAIAGSANLQLLTEDHGRHLADKGILYAPDYIVNSGGLIQVADELYEVNKERVLAKTKHIYDAILEVYQQAELDQITTMEAANRMCEQRMAARGRRNSFFTSSVKPKWDIRN
As to B1, the “activity level, 1,3 Phenylbutanedione” value in data set [1] was determined as 30 mU/mg. Moreover, the “Activity, R/S-MBA” value in data set [2] (40 mM, 20 mM of each enantiomer) was found to be 0.5 ± 0.2 mU/mg. Also, in data set [2] (0.1M glycine pH 10.0, 1 mM NAD+, 20 mM, 25° C.), the “Activity, 1,3-DMBA” value worked out at 166.3 ± 0.0 mU/mg. Further, in data set [3], the Km was 23.9 µM. In data set [4], the “Activity, 1-Boc-piperidone” value stood at 7.8 ± 1.1 mU/mg; the “Activity, 2-hexanone” value is 155.7 mU/mg and 155.7 ± 1.4 mU/mg; the “Activity, 2-methylcyclohexanone” value was found to be 19.3 ± 1.1 mU/mg; the “Activity, 3-hexanone” value is 1.6 mU/mg and 1.6 ± 0.5 mU/mg. Further, in data set [4], the “Activity, 3-methyl-2-butanone” value is 72.7 ± 1.4 mU/mg; the “Activity, 3-methylcyclohexanone” value worked out at 41.1 ± 2.1 mU/mg; the “Activity, 3-pentanone” value stood at 1.3 ± 0.0 mU/mg; the “Activity, Benzyloxyacetic acid” value was determined as 22.6 ± 0.7 mU/mg. Also, in data set [4], the “Activity, benzaldehyde” value is recorded as 31.4 ± 8.7 mU/mg; the “Activity, cyclopentanone” value was 0.9 ± 0.5 mU/mg; the “Activity, phenoxy-2-propanone” value is on record as 540.8 ± 6.9 mU/mg. In data set [4] (listed as K77S/N276L), the “Activity, 2-hexanone” value is listed as 155.7 mU/mg and the “Activity, 3-hexanone” value was 1.6 mU/mg.

As usually defined, the Km is the concentration of substrate that gives half-maximal velocity.
